The values that follow come from the nanobody polyreactivity screen of Harvey et al. (2022).

The data set in a line: yeast display, Sf9 membrane polyspecificity reagent, FACS + sequencing; frameworks hold sequencing errors. In outline:
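Using colony PCR, genes from sorted yeast display clones were amplified, then sequenced on MiSeq at 2 × 250 and filtered by CDR length. The clones had been stained with 10% biotinylated, detergent-solubilized Sf9 membrane reagent for 1 hour at 4 °C and sorted by FACS into low and high (top ~1%) gates on anti-HA and streptavidin fluorescence. Polyreactivity labels come from the gate of origin.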
Regarding “QVQLVESGGGLVQAGGSLRLSWAASGITFRYYAMGWYRHAPGKERELVAAITSGGSTYYADSVKGRFTISRDNAKNTVYLQMNSLKPEDTAVYYCAAKYTLGVSRHPPVKKFYYWGQGTQVTVSS”, the “polyreactivity (PSR sort gate)” value is reported as “high polyreactivity”.
In the case of “QVQLVESGGGLVQAGGSLRLSWAASGITFVRYAMGWYRQAPGKEREFVAAINSIVGRTYYADSVKGRFTISRDNAKNTVYLQMNSLKPEDTAVYYCDADSNVRYGMDYWGQGTQVTVSS” it was “low polyreactivity”.
As for “QVQLVESGGGLVQAGGSLRLSWAASGNTFYGYAMGWYRQAPGKERELVAGIRWSGGSTSYADSVKGRFTISRDNAKNTVYLQMNSLKTEDTAVYYCAAGWYPWGYYSGYISYEYWGQGTQVTVSS”, the “polyreactivity (PSR sort gate)” value is listed as “high polyreactivity”.
“QVQLVESGGGLVQAGGSLRLSWAASGRIFGRYTMGWYTQAPGKERELVAAISSAGSTNYADSVKGRFTISRDNAKNTVYLQMNSLKPEDTAVYYCNRAKYVRYSLHYLGYARDYWGQGTQVTVSS”: the “polyreactivity (PSR sort gate)” value is recorded as “high polyreactivity”.
In the case of “QVQLVESGGGLVQAGGSLRLSWAASGSIFNTYVMGWYRQAPGKEWELVAAITYSAGGDTYYADSVKGRFTISRDNAKNTVYLQMNSLKPEDTAVYYCAAEYTYLDAYGSYDYWGQGTQVTVSS” it was “low polyreactivity”; in that of “QVQLVESGGGLVQAGGSLRLSWAASGSIFRYNAMGWYRQAPGKERELVAAISSGGGTTYYADSVKGRFTISRDNAKNSVYLQMNSLKPEVTAVYYCNARSYYQRTTYPFRVDYWGQGTQVTVSS”, “high polyreactivity”; in that of “QVQLVESGGGLVQAGGSLRLSWAASGSTFGFYAMGWYRQAPGKERELVASISSGGTTYHADSVKGRFTISRDNAKNTVYLQMNSLKPEDTAVYYSAAFYVATSKLGYWGQGSQVTVSS”, “low polyreactivity”.
With “QVQLVESGGGLVQAGGSLRLSWAASGSTFNSYAMGCYRQAPWKERELVAAITWSGGSTFYADSVKGRVTISRDNAKNTVYLQMNSLKPEDTSVYYCNADGPYYPPYPSTYVDGDSWGQGTQVTVSS” the entry was “low polyreactivity”; with “QVQLVESGGGLVQAGGSLRLSWAASGSTFVVYAMGWYRQAPGKERELVAAIDLSVGDTYYADSVKGRFTISRDNAKNTVFVQMNILKPEDTAVYYCAAEFYSYKYPDYDYWGQGTQVTVSS”, “low polyreactivity”.
In the case of “QVQLVESGGGLVQAGGSLRLSWAAYGNIFPHYAMGWYIQAPGKERELVAGITSSGGSTSYADSVKGRFTISRDNAKKTVYLQMNSLKPEDTAVYYCAAPRGQRVRDVYWGQGTQVTVSS” it was “low polyreactivity”; in that of “QVQLVESGGGLVQAGGSLRLSYAASGFIFRYYAMGWYRQAPGKERELVAAIKASGGRTYYADSVKGRFTISRDNERNTVYLQINSLKPEDTAVYYCAASRSYQTFDYWGQGTQVTVSS”, “high polyreactivity”; in that of “QVQLVESGGGLVQAGGSLRLSYAASGFTFTGYALGWYRQAPGKARELVAAISQSGGSTYADSVKGRFTISRDNAKNTVYLQMNSLKPEDTAVYYCAAVWFLLTEYDYWGQGTQVTVSS”, “low polyreactivity”.
“QVQLVESGGGLVQAGGSLRLTCAASAFTFKLYVMGWYRHATGKERQFDAGITKRGGRTYYADSVKGRFTISRDNAKNTFYLQMNSLKPEDTAVYYCSAGTRIYNSCIRFDYWGQGTQVTVSS”: the “polyreactivity (PSR sort gate)” value is “high polyreactivity”.
On to “QVQLVESGGGLVQAGGSLRLTCAASGFIFHRYAMGWYRQAPGKERELVAAITLNGGSTYYADSVKGRFTISRDNAKNTVYLQLNSLKPEDTAVYYCNAGWPWYVGGYYYWGQGTQVTVSS”, for which the “polyreactivity (PSR sort gate)” value is “low polyreactivity”.
With “QVQLVESGGGLVQAGGSLRLTCAASGFIFSKYAMGSYRQAPGKERELVAAISTSGASTYYADSVKGRFTISRDNAKNTVYLQMNSLKPEDTAVYYCNVPRYSPIRNYDYWGQGTQVTVSS”, the “polyreactivity (PSR sort gate)” value is recorded as “high polyreactivity”.
Take “QVQLVESGGGLVQAGGSLRLTCAASGFIFVTYAMGWYRQPPGKERELVAAITNSGGTTYYADSVKGRFTISRDNAKNTVYLQMNSLKPEDTAVYYCNIPYGAETAHREFDYWGQGTQVTVSS”: the “polyreactivity (PSR sort gate)” value is reported as “low polyreactivity”.
With “QVQLVESGGGLVQAGGSLRLTCAASGFTFPDKAMGWYRQAPGNERELVAALTTSGGRTYYADSVKGRFTISRDNAKNTVYLQMNRLKPEDTAVYYCARPSRQSHWYYYWGQGTQVTVSS” the entry was “high polyreactivity”; with “QVQLVESGGGLVQAGGSLRLTCAASGIIFRLNAMGWYRQAPGKERELVAAIRRRGGSTYYADSVKGRFTISRDYAKNTVYLQMNSLKPADTAVYYCAKEPDGSDFGYWGQGTQVTESS”, “low polyreactivity”; with “QVQLVESGGGLVQAGGSLRLTCAASGNTFGNYAMGWYRQAPGKERELVASISWNVGSTYYADSVKGRFTISRDNAKNTVYLQMNSLKPEDTAVYYCARGYDRPRVATFHRFDYWGQGTQVTVSS”, “low polyreactivity”.
With “QVQLVESGGGLVQAGGSLRLTCAASGRIFAPKAMGWYRQAPGKERELVAGISSGGSTNYADSVKGRFTISRDNAKNTVYLQMNSLTPEDSAVYYCATGSYSYHRGYVTYARYGYWGQGTLVTVSS”, the “polyreactivity (PSR sort gate)” value is on record as “low polyreactivity”.
Consider “QVQLVESGGGLVQAGGSLRLTCAASGRIFDTYAMVWYRQAPGKEMELVAAISRSGGRTYYADSVKGRFTISRDNANNTVYLQMNSLKPEDTAVYYCAARAYPYYWTGQKQSRFGYWGQGTQVTVSS”, for which the “polyreactivity (PSR sort gate)” value is “high polyreactivity”.
With “QVQLVESGGGLVQAGGSLRLTCAASGRIFPYYAMGWYRQAPGKEREFVAAITSSGSRTYYADSVKGRFTISRDNAKNNVYLQMNSLKPEDTAVYYCAVAYRLLYYYWGQGTQVTVSS”, the “polyreactivity (PSR sort gate)” value is recorded as “high polyreactivity”.
For the sequence “QVQLVESGGGLVQAGGSLRLTCAASGRIFQRYAMGWYRQAPGKERELVAGITSSGGSTYYADSVKGRFTISRDNAKNTVYLQMNSLKPEDTAVYYCNAGGELRYYGYRAGGTTRSYDYWGQGTQVTVSS”, the “polyreactivity (PSR sort gate)” value was “low polyreactivity”.
Consider “QVQLVESGGGLVQAGGSLRLTCAASGRIFRRNAMGGYRQAPGKEREMVATITSGSSTNYADSVKGRFTISRDNAKNTVYLQMHSLKPEDTAVYYCAKLPWKYRVGYYRNQQTYDYWGQGTQVTVSS”, for which the “polyreactivity (PSR sort gate)” value is recorded as “high polyreactivity”.
On to “QVQLVESGGGLVQAGGSLRLTCAASGRIFYPYPMGWYRQAPGKERELVAAIDKGGGSTYYADSVKGRFSISRDNAKNTVYLQMNSLKPEDTAVFYCAAGWEYPYDYWGQGTQVTVSS”, for which the “polyreactivity (PSR sort gate)” value was “low polyreactivity”.
Take “QVQLVESGGGLVQAGGSLRLTCAASGRILRINTMGWYRQAPGKEMELVAAISLSGGTTYYAHSVKGRFTISRDNAKNTVYLQMNSVKPEDTAVYYCYKAIWYAEYDYWGQGTQVTVSS”: the “polyreactivity (PSR sort gate)” value was “low polyreactivity”.
In the case of “QVQLVESGGGLVQAGGSLRLTCAASGRISKIYAMGWYRQAPGKERELVAAINSGGSTNYADSVKGRFTISRDNAKNTVYLQMNSLKPEDTAVYYCAATFKSGMDFWGQGTQVTVSS” it was “high polyreactivity”.
As for “QVQLVESGGGLVQAGGSLRLTCAASGRTFGHYAMGWYRQAPGKERELVAAISQRGGGTYYADSVKGRFTISRDNAKNTVYLQMNSLKPEDTAVYYCAADFGNSPYIKDYYYWGQGTQVTVSS”, the “polyreactivity (PSR sort gate)” value is “low polyreactivity”.
In the case of “QVQLVESGGGLVQAGGSLRLTCAASGRTFGKYAMGWYRQAPGKERELVAAISSSGSTNYADSVKGRFTISRDNAKNTDYLQMNSLKPEDTAVYYCAAVQPGQSTVAYDYWGQGTQVTVSS” it was “high polyreactivity”; in that of “QVQLVESGGGLVQAGGSLRLTCAASGRTFGVNAMGWYRPAPGKERQLVAAITGGGSTYYADSVKGRFTISRDNAKNTVYLQMNSLKPDDTAVYYCNADRRRRSGGFAGWHFERNDYWGQGTQVTVSS”, “low polyreactivity”.
In the case of “QVQLVESGGGLVQAGGSLRLTCAASGRTFIVYAMGWYRQAPGKERELVARISSGSRTSYADSVTGRFTISRDNAKNTVYLQMNSLKPEDTAVYYFAKSRVIKYEFDYWGQGTQVTLSS” it was “low polyreactivity”; in that of “QVQLVESGGGLVQAGGSLRLTCAASGRTFSVNAMGWYRQAPGKERELVASINWSGGSTYYADSVKGRFTISRDNAKNTVYLQMNSLKPEDTAVYYCAADHSYWDWWSYYYWGQGTQVTVSS”, “low polyreactivity”; in that of “QVQLVESGGGLVQAGGSLRLTCAASGRTFWRYAMGWYRQAPGKERELVAAITSGGGSTYYADSVKGRFTISRDNAKNTVYLQMTSLKPEDTAVYYCNRAGRGRSFKGDYWGQGTQVTVSS”, “high polyreactivity”.
In the case of “QVQLVESGGGLVQAGGSLRLTCAASGRTFYPYAMGWYRPAPGKERELVAAISSGVRTYYADSVKGRFTISRDNAKNTVYLQMNSLKPDDTAVYYCAARRSIWGQGTQVTVSS” it was “high polyreactivity”; in that of “QVQLVESGGGLVQAGGSLRLTCAASGRTYFYNAMGWYIKAPGKERELVAAISTNGGSTYYADSVNGRFTISRDNAKNTVYLQMNSLKPEDTAVYYCNTYAKPHRSGGGLGGHYYWGQGTQVTVSS”, “low polyreactivity”; in that of “QVQLVESGGGLVQAGGSLRLTCAASGSIFALYAMGWYRQAPGKERELVAANADSVKGRFTISRDNAKNTVYLQMNSLKPEETAVYYCAKDITGGSGLGSWIYSEYDYWGQGTQVTVSS”, “low polyreactivity”.
With “QVQLVESGGGLVQAGGSLRLTCAASGSIFDYYAMGWYRQAPGKEWELVAAISNGGTTNYADSVKGRFTLSRDNAKNTVYLQMNRLKPEDTAVYYCNADSALYDKAVIYSEYDYWGQGTQVTVSS”, the “polyreactivity (PSR sort gate)” value is “low polyreactivity”.
In the case of “QVQLVESGGGLVQAGGSLRLTCAASGSIFFPNTMGWSRQAPGKERELVASISYSGGSTYYADSVKGRFTISRDIAKNSVYLQMNSLKPEDTAVYYCARTYWGDRYQFSSNGYEYWGQGTQVTVSS” it was “high polyreactivity”; in that of “QVQLVESGGGLVQAGGSLRLTCAASGSIFFQNAMGWYRQAPGKERELVATITSSVGSTYYADSVKGRFTISRDNAKNTVYFQMNSLKPEDTAVYYCNVRVFSAALWYTYFGYDYWGQGTQVTVSS”, “low polyreactivity”.
With “QVQLVESGGGLVQAGGSLRLTCAASGSIFLDYAMGWYRQAPAKERELVAGITISGGSTYYADSVKGRFTISRDNAKNTVYLQMNSLKPEDTAVYYCAKVAPRSSSSQEYYYWGQGTQVTVSS” the entry was “low polyreactivity”.
